Laboratory results from US20200306367A1 (University of Washington, published 2020).

Legend:
human CD180 [1] = biological target: T1, human CD180 (human, UniProt Q99467 24-661); assay: flow cytometry on human B cells (figure legend)
T1 construct: whole, on cells; Native CD180 on primary human B cells; also called RP105; Bgp95
T1 sequence: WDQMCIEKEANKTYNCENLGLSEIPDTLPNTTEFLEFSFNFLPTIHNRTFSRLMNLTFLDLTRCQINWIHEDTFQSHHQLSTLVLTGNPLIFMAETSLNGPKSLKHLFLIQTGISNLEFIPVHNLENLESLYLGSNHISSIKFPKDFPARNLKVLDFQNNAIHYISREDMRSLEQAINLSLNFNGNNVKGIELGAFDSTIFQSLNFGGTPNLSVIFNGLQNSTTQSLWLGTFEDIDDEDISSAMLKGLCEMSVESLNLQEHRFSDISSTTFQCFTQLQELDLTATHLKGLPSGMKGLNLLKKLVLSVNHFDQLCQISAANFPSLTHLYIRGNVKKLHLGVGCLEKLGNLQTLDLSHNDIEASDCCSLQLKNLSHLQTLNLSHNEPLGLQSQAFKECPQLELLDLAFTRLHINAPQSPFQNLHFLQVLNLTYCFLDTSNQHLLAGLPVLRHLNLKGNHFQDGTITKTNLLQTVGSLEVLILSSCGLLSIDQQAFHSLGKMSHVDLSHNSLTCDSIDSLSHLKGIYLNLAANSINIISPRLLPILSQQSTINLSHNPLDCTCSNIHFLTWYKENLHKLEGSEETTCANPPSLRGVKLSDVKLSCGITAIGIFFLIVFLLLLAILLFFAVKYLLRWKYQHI

human CD180 [2] = biological target: T1, human CD180; assay: flow cytometry competition on human B cells; 2.5 ug unlabelled G28-8 first, then 10 ug G28-8-PE

B1: G28-8LH-HBcAgY132A-His (scFv)
chain: DIQMTQSPASLSASVGETVTITCRASEKIYSYLAWYQQKQGKSPQLLVYNAKTLAEGVPSRFSVSGSGTQFSLRINSLQPEDFGTYYCQHHFGSPRTFGGGTKLEIKDLGGGGSGGGGSGGGGSGGGGSTGEVQLQQSGPELVKPGASMKISCKASGYSFTGYTMNWVKQSHGKTLEWIGLINPYNGVTSYNQKFKDKATLTVDKSSSTAYMELLSLTSEDSAIYYCARDYNYDYFDYWGQGTTLTVSSGGGGSGGGGSGGGGSGGGGSMDIDPYKEFGASVELLSFLPSDFFPSIRDLLDTASALYREALESPEHCSPHHTALRQAILCWGELMNLATWVGSNLEDPASRELVVSYVNVNMGLKIRQLLWFHISCLTFGRETVLEYLVSFGVWIRTPPAARPPNAPILSTLPETTVVHHHHHH
notes: Anti-human CD180 scFv (VL-VH) fused to HBcAg(1-149) Y132A and a 6xHis tag, made in CHO cells and purified on nickel resin; the tested protein carried it, since it was detected with anti-6xHis; also called aCD180-HBVAg; HBcAg-CD180
- binding result (human CD180 [1]): binds

B2: G28-8 anti-human CD180 monoclonal antibody (antibody, V domains shown)
VH: EVQLQQSGPELVKPGASMKISCKASGYSFTGYTMNWVKQSHGKTLEWIGLINPYNGVTSYNQKFKDKATLTVDKSSSTAYMELLSLTSEDSAIYYCARDYNYDYFDYWGQGTTLTVSS
VL: DIQMTQSPASLSASVGETVTITCRASEKIYSYLAWYQQKQGKSPQLLVYNAKTLAEGVPSRFSVSGSGTQFSLRINSLQPEDFGTYYCQHHFGSPRTFGGGTKLEIK
notes: Commercial parent monoclonal antibody, a whole IgG; also called G28-8 mAb; parent G28-8 antibody
- binding result (human CD180 [2]): binds
